In the DeepSol protein solubility set:

Assay: soluble on expression in E. coli; label from the status in PepcDB or PDB records

| Sequence | soluble on expression in E. coli |
| --- | --- |
| MPDEIYLFTPKGKIFALPKNSTALDFAYAVHTDIGNHAVTSRVDKQLMPLRTKLSSGQTVEIITARSALPKPQWLEHHHHHH | not soluble |
| MAPSQPTQNAQTVSSVMTETPTYTSSSRSVESTAGTIAASEEATMTLLENSSGDPGSDSGGARYSLNSLKVSEQAAANAVLKAVLNDVSYQEFADSSYLEITGTPSADGTWGISFGGPSESASVEFSDGSISFSPVDMTVPATRLPQMGAFYETLTEEQLGMLETGLAVSTVDSSQQEMLLDLVSNSIGLADTETTATAISKIRATLSETYLFGTPDGLTLALSGPHVDFEVSHQGSTAKITYRDPSTDTLTAEDRVDTASVAAAPPEVVLEHHHHHH | soluble |
| MGSDKIHHHHHHMRTIWTPTLENFSGSKYEQLANAIGDAITRGELAPGSKLPPQRRLADALGVTLGTVTRAYTKAIYRGWVEARVGDGTYVRMAEPKSTGPLDLATCQQAVTDQAAFLGEVMSRMGRDPVRLAGLLDYHTANLEAQQETVLTFLARSGVDDFGGKLVFTHGAQQGLFAALAAICEPGDWVLHEAWCYPGLNRAAEALSLNLCGVSLLDDGLNLDELAACIDKHKPKAIYLTPNSQNPGCIGYSGAQRQRILALARAHDIIIIEDDVNYCTSQEWSAPIWQLAADAQSVVYLSSLSKRFAGGIRFGFMLLPARLQPRVNRIIHAHCWMVSPLLIEIGCELIRSGGIHQHRDAWIASLQQRFLTMAESLDLEAKSRGLNGRLTLPEGFRASNVIAALAAKGILARSLADFGGPANGIRFSLGRIPRGEEDEVFDRIQSTLTDVLNQGIAVV | not soluble |
| SCRRAFDLYFVLDKSGSVANNWIEIYNFVQQLAERFVSPEMRLSFIVFSSQATIILPLTGDRGKISKGLEDLKRVSPVGETYIHEGLKLANEQIQKAGGLKTSSIIIALTDGKLDGLVPSYAEKEAKISRSLGASVYCVGVLDFEQAQLERIADSKEQVFPVKGGFQALKGIINSILAQSC | soluble |
| MGSDKIHHHHHHMLRPESEAELAQIVAGLTAPVRIRGGGTRGVPGPKAELDISGLSGITLYEPGALTLVAKAGTPVAEIEAALAAEGQRLAFEPVDHRGLMGTGGTPTIGGVVAGNISGPRRIQAGAARDFLLGVRYVDGLGQVISNGGRVMKNVTGYDLVKLMAGSWGTLGVLSEVSLKVLPKAETQTTLAISVPDAASAVRALSAGLGSPYEVTGAAYDPALGQALVRIEGFEASVAYRAEALSRLFAPFGTVARLEDDPWPGIRDVAPFHGREGDVWRISVKPGDAPELAARCKAEALLFDWGGGLIWALMPEGADLRGRLGEFAGHATLIRGDRRQHAMFQPESAPLAALTRGLRQRFDPKGHFNPGLMG | not soluble |
| MLNNGTFPLVFQFIHRRRKLLYYTKYHIFQQQLADGALEVEYCEASLYSMKEIKEINRELKRDYKRFQNRILELERNNEEYLVDDIVEFKKKKSHRSYLLMQYIETQISYKKKMGKDGIAAAYHSTYISLKKYIGMKSARKSDIRMEEINFSFVVGYEDYLNAQGLARNTINYYLRNFRTIYNSSIRDGFKPKSENPFTYIQTKPCKTIKRAINKDDMKKLSSLILPVHSGMDIARDMYLFSFYAQGMAFVDIVFLKKKNIRDGILSYRRHKSQQLIHIVITPQMQGLIDKYANDSEYVFPIIDTSLSTSIYDQYRLALGRVNRYLKKITFRLNINVRLTTYTARHTWATLARESGAPISIISAGLGHTSEEMTRVYLKEFDQETLARVNRIVTNLL | not soluble |
| MVGWWPVGRRQAWHRFFPCHRRPALRCDAHSFFAPGKHIMAHRILTLGEITDGFDVVLSDVWGVLHNGVSAFPDAAVALHEARKAGKTVVLITNSPRPAPGVIAQLRVLGVPDEAYDRIITSGDVTRGLIAEGPKKVFLLGPERDMPLLEGLDVERVGEAEAQSVVCTGFFDDETETPEDYTEMLKGFIARKVPMICANPDLVVERGERIIPCAGAMAAYYEQLGGEVRIAGKPHAPIYEACLAAAKDVRGAFAKDRVLAIGDGMPTDVKGAIASGLNLLYISGGIHAAEYTLNGQTDEALLNAYLKGQGAAPGWWMPRLA | not soluble |
| MLSVAGHRFASLATTPVLRMGLARCFSSVTGPFQCPPLPYVKNALEPHMSAETLTYHHDKHHQTYVDTLNSIAAENSTIASKTLEQIIKTETGKPFNQAAQVYNHTFFFNNLAPNGGGEPTGKIAELITRDFGSFEKFKEDFSAAAVGHFGSGWVWLIADDGKLKIVQGHDAGNPIRESKTPLMNIDVWEHAYYIDYRNARAQYVKNYWNLVNWDFVNDNVAKAGI | soluble |
| MGSDKIHHHHHHMKVLLYLEGKTVLEKSGIGRALQHQMEALDMAGIPYTTDLLGDYDVIHINTYGPRSWLLLHAAKRSGKKVIMHGHSTKEDFQNSFIGSNTLAPFVGKYLASMYQKADFVITPSEYSKKLIQSYGVTTPIIAVSNGIDLDKYKKDERKEAIFREHFKIEEGQPVVVCAGLYFRRKGIEDFVKVAEKMPHVRFIWLGSINKWLIPSYIRKIVEGDHPANVEFPGYFKGAVFQGAMSGADAFFFPSYEETEGIVVLEALASHQHVVLRDIPVYDGWVDENVAELGHTVDDFVDSIQKILDKQVDKREAGYQVAVSRSIDNVSHQLVDAYRQVLEM | not soluble |
| AHHHHHHGSHFIKHFEEELIALSNAPHRGGLTKARGFFFMKVEKNYRGDYKKDCLEFERKNGLRSFVGFMTAVDIEKVMAIKSLGNVEVYLTAGISNPAIAGEEPKPWEPGTINMAIVIDEGLTIGAMANAIMTATEAKTYTLLKLGYNATGTTSDGIGVFARQGNVEWAGTATRLGFEIGKAVREALEESIKKWEKIKSL | soluble |
| MGSDKIHHHHHHMPSETRLPNFIRTLIFALSFIFLNACSEQTAQTVTLQGETMGTTYTVKYLSNNRDKLPSPAEIQKRIDDALKEVNRQMSTYQPDSEISRFNQHTAGKPLRISSDFAHVTAEAVHLNRLTHGALDVTVGPLVNLWGFGPDKSVTREPSPEQIKQAASYTGIDKIILKQGKDYASLSKTHPKAYLDLSSIAKGFGVDKVAGELEKYGIQNYLVEIGGELHGKGKNARGEPWRIGIEQPNIVQGGNTQIIVPLNNRSLATSGDYRIFHVDKSGKRLSHIINPNNKRPISHNLASISVVADSAMTADGLSTGLFVLGETEALKLAEREKLAVFLIVRDKGGYRTAMSSEFEKLLR | not soluble |
| MSLRNKLLTIFDSVDESARIKDAFITQLESSITDAGVLALKLELLDFLTSNLSNYSRTMTISHLLLGFQVSNVISLGPNLATFISSGTSLLDSLISVLEASLNSITKDNIDYAPMRLATAALEIILKLCRNPLTSGLLYSYLIKENFFERIMILDPQVTRFTTWNGSPFDNSTEEKCKNFIESESVGAFLSFLAYRNYWTQYLGLFIHKISFSGTKSEVLTYVNYLISNTMYSVRLFSFLDPLNYGNICEPKETLSIFTNVPLNLEQVTLNKYCSGNIYDFHKMENLMRLIKRVRAESLHSNEGHHHHHH | soluble |
| MSHTILLLQPTDNIESRSWSDYENTTECLEGICRVYEEYLKKKVPAQNEITYDISHLFEFIDDLKDLSMLVLDNTTYTYVPHNKQYVKESIYKLMNNRLNNQH | not soluble |
| MSTNLNIEVSINLTEIDVNAQLAEFARFQQVRDDSRYAQDVEREFVLGPIRHHRRQLEPSRSAPLASTEQPVAQATTHPSTENARVPALVLRSGSWRALPVAQGGSSHIRIWPVSRSATTTSTATRHPPFTNTSASTSFAPYQRHRGSALQTSECTICFEKPVDPRGCPKCLKVIGCKKCVKKWFDTSASKACPLCRFEWKLHRDNPDVVKISTLEVLKRQKQNRP | not soluble |
| MAHHHHHHMVENELLYENDVSNSGLDGKPRLHSFFNKDGLLLRTYSWTVKKAIGIFLLIHGLNGHVRLQYLRQNVEVISNDKAILKDQDNYYVYKDSWIEKLNDKGYSVYGIDLQGHGLSEGWENLKANINNFDDLVYDVIQYLEEINRTVCLDYERNKYLRAIREKNTDMKALKKDKIPIYIMGLSMGGNVVLRTLELLGKSGDYKNLNIKGCISLSGMICLEELSSKASMKYKYFLVPFSKFISYIFPKCRINQNFNFEMFPFVNDIINFDKHRSKKWITFKFGHQILRSITNLRKDIQYIPKDIPILFVHSIHDCACYYGGVVTFYDQLDNDKKELYTIYDMDHLLTMEPGNEKVLEKVLDWISGSFNNKRRRRRTSS | not soluble |
